Entries after “also recorded” stand apart in the source; their conditions may differ.
Key:
VAP-1 [1] = molecular target: T1, VAP-1 (Homo sapiens, UniProt Q16853); settings: computer docking simulations, literature; cited from earlier work
T1 sequence (Q16853 1-763): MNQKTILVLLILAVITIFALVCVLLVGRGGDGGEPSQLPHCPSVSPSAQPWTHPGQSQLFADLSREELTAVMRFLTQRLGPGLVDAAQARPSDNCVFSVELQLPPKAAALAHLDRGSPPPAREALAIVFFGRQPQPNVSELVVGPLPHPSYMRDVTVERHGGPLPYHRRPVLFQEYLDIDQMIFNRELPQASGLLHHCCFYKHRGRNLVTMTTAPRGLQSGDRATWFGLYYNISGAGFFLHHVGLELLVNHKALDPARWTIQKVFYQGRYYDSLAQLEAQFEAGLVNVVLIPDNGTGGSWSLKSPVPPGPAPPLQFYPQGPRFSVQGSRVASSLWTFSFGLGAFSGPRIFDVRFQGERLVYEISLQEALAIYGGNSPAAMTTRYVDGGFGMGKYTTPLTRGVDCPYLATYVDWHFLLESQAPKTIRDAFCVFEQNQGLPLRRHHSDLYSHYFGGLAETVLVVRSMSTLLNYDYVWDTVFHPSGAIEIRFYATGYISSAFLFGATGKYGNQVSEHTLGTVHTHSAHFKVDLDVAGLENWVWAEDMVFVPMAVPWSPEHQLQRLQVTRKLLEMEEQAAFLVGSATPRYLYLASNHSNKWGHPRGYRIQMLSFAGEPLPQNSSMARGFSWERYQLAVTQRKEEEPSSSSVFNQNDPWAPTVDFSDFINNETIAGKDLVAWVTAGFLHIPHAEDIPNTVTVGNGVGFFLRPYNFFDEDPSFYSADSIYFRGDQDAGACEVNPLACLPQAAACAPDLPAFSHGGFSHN

VAP-1 [2] = molecular target: T1, VAP-1; test: Fluorometric detection of SSAO-mediated H2O2 formation (Amplex Red) with VAP-1 transfected CHO cells; assay type: biochemical; design: The CHO cells stably transfected with the cDNA encoding VAP-1 was used; expressed in transfected cells; host or cells: CHO cells, stably transfected; settings: for inhibition of the activity (VAP-1 SSAO): methylamine substrate
Protocol: Cells. The CHO cells stably transfected with the cDNA encoding VAP-1 was used. The VAP-1 expression level of these cells was confirmed by staining with anti-VAP-1 monoclonal antibodies and subsequent flow cytometric analyses. The VAP-1 transfectants were grown into the confluence, detached, counted and equal numbers were divided to 96 well plates for enzymatic assays.
Fluorometric detection of SSAO-mediated H2O2 formation. Amine oxidase activities were measured using a highly sensitive and stable probe for H2O2 Amplex Red reagent (Molecular Probes Europe BV) as described previously (Salmi et al., 2001). The enzymes were incubated in white microplates in the final volume of 200 μl KRPG containing various concentrations of the tested peptides, 0.8 U/ml horseradish peroxidase, 60 μM Amplex Red reagent, and methylamine as preferred amine substrate for SSAO. Fluorescence intensity of the samples was measured using Tecan ULTRA fluoropolarometer (excitation/emission wavelengths 545/595 nm). To evaluate the amount of H2O2 formed via SSAO-mediated reaction, specific enzyme inhibitor semicarbazide (200 μM) was included in the control well, and these values were subtracted from the total amount of H2O2 formed. To test whether the peptides could interfere with fluorometric H2O2 detection, H2O2 concentrations were calculated from calibration curves generated by serial dilutions of standard H2O2 in the presence of various concentrations of peptides. All calibration curves show linear dependence of the measured fluorescence intensity vs. H2O2 concentration in the presence of peptides in concentrations less than 250 micrograms/ml.

[3] = peptide concentration 10 micrograms/ml
[4] = peptide concentration 100 micrograms/ml

inhibition of the activity (VAP-1 SSAO) (VAP-1 [2]; [3]) | inhibition of the activity (VAP-1 SSAO) (VAP-1 [2]; [4]) | Substance | binding to the active site of VAP-1 in docking (VAP-1 [1]) | VAP-1 inhibiting activity compared with earlier lysine containing peptides (VAP-1 [2]; comparison in words)
17.4% | 20.3% | GGGGKGGGG (VAP-1 targeting peptide) | bind optimally | 
33.5% | 42.8% | GGGGKYGGG (VAP-1 targeting peptide) |  | stronger than that of the previously disclosed lysine containing peptides; also recorded: more potent inhibitor of VAP-1 than GGGGKGGGG
 |  | GGGKEGG (VAP-1 targeting peptide) [previously disclosed lysine containing peptide] | bind optimally | 
 |  | GGGKGGG (VAP-1 targeting peptide) [previously disclosed lysine containing peptide] | bind optimally | 
 |  | GGGKKGG (VAP-1 targeting peptide) [previously disclosed lysine containing peptide] | bind optimally | 

Source: patent US20080213176A1, “Compositions for Targeting Amine Oxidases in Vivo” (priority 2005, published 2008)
